Read-outs that look alike come from different tables or passages of the source.
Columns and labels:
Human Bax alpha (human) [1] = target: Human Bax alpha (human) (UniProt Q07812); test: cross-linking
Human Bax alpha (human) [2] = target: Human Bax alpha (human) (UniProt Q07812); test: cross-linking; remark: listed apart in the source

In the case of “Human Bax alpha (from UniProt Q07812 1-192) (natural protein)”, the stoichiometry N (Human Bax alpha (human) [1]) is reported as < 8 and the stoichiometry N (Human Bax alpha (human) [2]) is reported as 2.
